Assay [1] concerns the target HyBcl-2-4. The experiment in a line: ITC binding of BH3 motif peptides to HyBcl-2-4. The arrangement: species or system Hydra vulgaris. As to conditions: read-out: KD (dissociation constant), HyBcl-2-4, MicroCal iTC200, 25°C, tag-free HyBcl-2-4 lacking 30 C-terminal residues, 25 mM Hepes pH 7.5, 150 mM NaCl, means of 3 experiments ± SD, NB: no binding detected.
Assay [2] concerns the target HyBcl-2-4 lacking 30 C-terminal residues (fusion tag-free) (Hydra vulgaris). The experiment in a line: ITC. A general note: ITC needs no label: the signal is the heat of the interaction.
The target of assay [3] is human Bcl-2 (residues 10-203) (human, UniProt P10415 10-203). The experiment in a line: ITC.
Chain of human Bcl-2 (residues 10-203) (P10415 10-203): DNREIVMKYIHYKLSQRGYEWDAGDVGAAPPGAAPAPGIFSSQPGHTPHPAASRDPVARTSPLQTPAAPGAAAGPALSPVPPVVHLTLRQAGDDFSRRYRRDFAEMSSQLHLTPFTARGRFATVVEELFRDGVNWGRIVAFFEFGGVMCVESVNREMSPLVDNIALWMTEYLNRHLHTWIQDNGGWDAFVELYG
Assay [4] addresses human Bcl-xL (residues 1-209 Δloop45-84) (human, UniProt Q07817-1 1-209, Δloop45-84). The experiment in a line: ITC.
In assay [5] the target is T1, human Bcl-w (residues 9-152) (human, UniProt Q92843 9-152).
T1 sequence (looked up): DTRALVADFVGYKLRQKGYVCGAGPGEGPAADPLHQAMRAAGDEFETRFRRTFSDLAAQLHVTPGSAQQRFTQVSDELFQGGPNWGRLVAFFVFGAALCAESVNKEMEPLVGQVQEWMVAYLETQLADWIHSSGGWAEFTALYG
The experiment in a line: ITC.

For assay [6], the target named is human Mcl-1 (residues 171-320) (human, UniProt Q07820 171-320). Nature of the assay: ITC.
Chain of human Mcl-1 (residues 171-320) (Q07820 171-320): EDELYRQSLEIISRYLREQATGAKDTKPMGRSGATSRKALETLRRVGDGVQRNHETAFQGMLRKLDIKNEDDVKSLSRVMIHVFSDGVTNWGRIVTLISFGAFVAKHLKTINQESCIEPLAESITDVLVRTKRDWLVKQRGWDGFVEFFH
The target in assay [7] is T2, human A1/Bfl-1 (residues 1-151) (human, UniProt Q16548 1-151).
T2 sequence (looked up): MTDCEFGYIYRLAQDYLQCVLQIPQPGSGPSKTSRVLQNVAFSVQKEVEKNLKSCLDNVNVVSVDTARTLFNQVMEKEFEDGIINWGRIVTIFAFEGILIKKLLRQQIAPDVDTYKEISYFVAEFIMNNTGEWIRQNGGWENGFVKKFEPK
The experiment in a line: ITC.

Where no end group is shown, it is not given here.

As a reminder, the Kd is the concentration at which binding is half-saturated. In the case of SMRRLRAIGACLRAIGDDIQSRSEKS [HyBH3-only], the Kd in assay [1] stood at 149 nM.

Turning to SRNGTVNKEVAHCLKRIGDDLVNNHQLN [HyBax BH3 motif peptide], the Kd was 2290 nM in assay [2] and 41 nM in assay [6]. The binding result in assay [3], in assay [4], in assay [5] and in assay [7] was “binds” throughout.

With SNGETENLGRVLASFGDEINDKYRQV [HyBak1 BH3 motif peptide], the binding result in assay [3], in assay [4], in assay [5] and in assay [7] was “binds” throughout. The same molecule came in with an equilibrium dissociation constant (Kd) in assay [6] of 67 nM.

In the case of SMRRLRAIGACLRAIGDDIQSRSEKS [HyBH3-only-2 BH3 motif peptide], the Kd in assay [2] was found to be 149 nM; in assay [6], 50 nM. For the same molecule, the binding result in assay [3], in assay [4], in assay [5] and in assay [7] was “binds” each time.

The values above are taken from publication PMC7489894 (Biochemical Journal, 2020).
